This is an account of results in paper PMC11063404, “Classical and novel properties of Holliday junction resolvase SynRuvC from Synechocystis sp. PCC6803”.

The target in the data set is T1, SynRuvC E75A (Synechocystis sp. PCC6803, UniProt Q55506 1-167, E75A).
T1 sequence: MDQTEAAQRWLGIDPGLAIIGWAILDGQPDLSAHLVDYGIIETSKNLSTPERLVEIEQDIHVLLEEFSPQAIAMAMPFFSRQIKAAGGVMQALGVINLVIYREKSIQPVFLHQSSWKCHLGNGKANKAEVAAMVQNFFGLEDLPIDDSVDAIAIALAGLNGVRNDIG
Briefly: EMSA; EMSA: 50 nM 5'-FAM DNA, 0-2000 nM protein, 20 mM HEPES pH 7.5, 50 mM NaCl, 1 mM DTT, 10% DMSO, 1% glycerol, no metal listed, 37 C 60 min; 5% native PAGE in 1x TAE. The note with it: protein: recombinant; tags: His-SUMO N-terminal, removed (purified as WT); chain copies: 2; label: 5'-FAM on one strand; four-way junction, 13 bp homologous core. In general terms: A gel shift assay detects complexes by their altered migration in electrophoresis.

B1: 4Jh (structured_DNA)
DNA 1: GCAATTCGATCGTTGACATCTCGCGTGCTCGGTCAATCGGCAGATGCGGAGTGAAGTTCCAACGTTCGGC
DNA 2: CCTGCAGGATGGTAGGACGGCCTCGCAATCCCGATTGACCGAGCACGCGAGATGTCAACGATCGAATTGC
DNA 3: GCCGAACGTTGGAACTTCACTCCGCATCTGCCGATTGACCGAGTGGCGTGTTTCTGGTGGTTCCTAGGTC
DNA 4: GACCTAGGAACCACCAGAAACACGCCACTCGGTCAATCGGGATTGCGAGGCCGTCCTACCATCCTGCAGG
For the molecule B1, the binding result is reported as “no binding”.
